Assay [1] addresses T1, human glucagon-like peptide 1 receptor (GLP-1R) (Homo sapiens, UniProt P43220).
T1 construct: expressed in transfected cells
Briefly: GLP-1 receptor efficacy assay (cAMP AlphaScreen, CHO cells). The following applies: EC50 [GLP-1R] / EC50 [Glucagon-R], human receptors in CHO-K1. The class given is cell-based. The procedure: The mammalian expression vectors encoding the Glucagon-R or the GLP-1-R were transfected into Chinese hamster ovary (CHO) cells by the Attractene method. Stably expressing clones were obtained by Zeocin selection (250 μg/mL) upon limited dilution of cells resistant to the selection pressure. […] One Glucagon-R expressing clone and one GLP-1-R expressing clone were chosen for compound profiling.
CHO cells expressing the human Glucagon-R, or human GLP-1-R were seeded 24 hours prior to the assay at 30,000 cells per well in 96-well microtiter plates in culture in 100 μl growth medium. On the day of analysis, growth medium was removed and the cells were washed once with 200 μl of assay buffer (Krebs-Ringer-buffer—KRBH). The buffer was removed and the cells were incubated for 15 min at room temperature in 10 μl KRBH (KRBH+10 mM HEPES, 5 mM NaHCO3, 0.1% (V/V) BSA) with 0.1 mM IBMX in deionized water containing increasing concentrations of test peptides. The reaction was stopped by the addition of lysis buffer (0.1% w/v BSA, 5 mM HEPES, 0.3% v/v Tween-20). After cell lysis for 10 min at room temperature, lysates were transferred to 384-well plates and 10 μl of acceptor/donorbead mixture as contained in the AlphaScreen™ cAMP Functional Assay Kit was added. After one hour of incubation at room temperature in the dark, the cAMP content was determined applying the AlphaScreen™ cAMP Functional Assay Kit from Perkin-Elmer according to manufacturer instructions. […] The GLP-1/glucagon ratio is calculated as defined earlier.
(Bead proximity is the source of the signal in Alpha formats.)

For assay [2], the target named is human glucagon-like peptide 1 receptor (GLP-1R) (human, UniProt P43220 24-463). Briefly: cell-based or functional assay.
Assay [3] addresses human glucagon receptor (Glucagon-R) (human, UniProt P47871 26-477). Briefly: cell-based or functional assay.
For assay [4], the target named is T2, endogenous GLP-1 receptor of a murine insulinoma cell line (murine, UniProt O35659 22-463).
T2 sequence (looked up): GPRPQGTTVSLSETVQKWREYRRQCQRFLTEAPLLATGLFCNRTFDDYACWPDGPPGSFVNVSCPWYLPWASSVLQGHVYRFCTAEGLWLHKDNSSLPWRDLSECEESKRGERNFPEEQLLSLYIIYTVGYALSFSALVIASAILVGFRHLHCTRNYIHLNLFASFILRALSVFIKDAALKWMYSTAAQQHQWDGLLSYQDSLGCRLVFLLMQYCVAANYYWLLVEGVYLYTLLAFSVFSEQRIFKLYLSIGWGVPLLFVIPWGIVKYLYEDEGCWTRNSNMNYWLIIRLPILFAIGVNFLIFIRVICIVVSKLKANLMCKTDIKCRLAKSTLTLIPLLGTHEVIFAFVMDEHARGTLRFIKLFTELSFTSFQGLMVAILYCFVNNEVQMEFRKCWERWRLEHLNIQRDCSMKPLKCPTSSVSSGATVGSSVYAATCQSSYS
As to the kind of experiment: cell-based or functional assay.

Assay [5] concerns the target endogenous glucagon receptor of primary rat hepatocytes (rat, UniProt P30082 27-485). As to the kind of experiment: cell-based or functional assay.

Here are results for 9 molecules from patent US9988429B2, “Glucagon analogues” (Zealand Pharma A/S, priority 2013, dated 2018).

Starred links: 1 amine or outer side, 2 acyl side, 3 side chain; linkers in the order of their positions; H or OH if unused. Non-standard residues stand in square brackets, D forms with d. Residues, ends and D or L forms follow the SMILES beside them. Groups on a side chain read outwards from the residue. *: point of attachment. γGlu = O=C(O)[C@H](CCC(=O)[*:2])N[*:1]; Palmitoyl = CCCCCCCCCCCCCCCC(=O)*; Ac4c = NC1(C(=O)O)CCC1; Ac3c = NC1(C(=O)O)CC1

Chain of endogenous glucagon receptor of primary rat hepatocytes (P30082 27-485): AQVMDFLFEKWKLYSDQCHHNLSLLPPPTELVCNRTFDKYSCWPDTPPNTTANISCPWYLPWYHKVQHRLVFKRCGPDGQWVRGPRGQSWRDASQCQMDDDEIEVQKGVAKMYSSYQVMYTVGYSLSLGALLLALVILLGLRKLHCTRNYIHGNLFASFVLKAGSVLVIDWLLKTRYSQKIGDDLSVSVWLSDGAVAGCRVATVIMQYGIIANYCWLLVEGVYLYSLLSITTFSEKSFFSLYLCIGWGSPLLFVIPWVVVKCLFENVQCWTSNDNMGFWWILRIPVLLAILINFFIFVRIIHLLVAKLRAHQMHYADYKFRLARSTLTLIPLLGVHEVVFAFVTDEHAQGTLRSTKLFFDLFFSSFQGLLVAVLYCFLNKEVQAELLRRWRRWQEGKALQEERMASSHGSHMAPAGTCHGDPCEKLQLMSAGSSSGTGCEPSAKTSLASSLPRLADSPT
Chain of human glucagon receptor (Glucagon-R) (P47871 26-477): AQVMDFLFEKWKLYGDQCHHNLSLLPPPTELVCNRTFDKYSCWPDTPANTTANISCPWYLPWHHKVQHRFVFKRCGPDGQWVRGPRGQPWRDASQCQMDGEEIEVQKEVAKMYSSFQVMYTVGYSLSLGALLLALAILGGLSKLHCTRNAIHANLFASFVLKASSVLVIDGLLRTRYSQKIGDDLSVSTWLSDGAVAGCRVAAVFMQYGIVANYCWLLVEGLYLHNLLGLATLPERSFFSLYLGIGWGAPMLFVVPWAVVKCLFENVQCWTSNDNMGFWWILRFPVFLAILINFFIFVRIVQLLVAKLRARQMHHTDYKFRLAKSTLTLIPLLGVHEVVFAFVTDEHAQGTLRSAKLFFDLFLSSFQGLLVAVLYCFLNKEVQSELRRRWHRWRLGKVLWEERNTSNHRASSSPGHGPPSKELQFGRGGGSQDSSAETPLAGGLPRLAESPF
T1 sequence (P43220 24-463): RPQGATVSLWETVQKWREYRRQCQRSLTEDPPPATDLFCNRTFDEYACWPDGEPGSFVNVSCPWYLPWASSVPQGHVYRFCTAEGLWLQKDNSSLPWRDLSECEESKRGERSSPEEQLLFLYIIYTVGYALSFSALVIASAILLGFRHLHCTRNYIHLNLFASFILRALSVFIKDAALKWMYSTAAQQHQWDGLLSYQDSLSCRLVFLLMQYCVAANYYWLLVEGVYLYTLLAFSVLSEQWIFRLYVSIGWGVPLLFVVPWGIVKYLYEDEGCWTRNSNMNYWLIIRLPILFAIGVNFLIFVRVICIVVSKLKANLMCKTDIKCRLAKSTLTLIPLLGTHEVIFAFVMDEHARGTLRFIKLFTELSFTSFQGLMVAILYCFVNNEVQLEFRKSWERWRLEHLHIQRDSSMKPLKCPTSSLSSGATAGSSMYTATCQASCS

Turning to `CCCCCCCCCCCCCCCC(=O)N[C@@H](CCC(=O)NCCCC[C@H](NC(=O)[C@H](CO)NC(=O)[C@H](CC(=O)O)NC(=O)[C@H](CC(C)C)NC(=O)[C@H](Cc1ccc(O)cc1)NC(=O)[C@H](CCCCN)NC(=O)[C@H](CO)NC(=O)[C@H](Cc1ccc(O)cc1)NC(=O)[C@H](CC(=O)O)NC(=O)[C@H](CO)NC(=O)[C@@H](NC(=O)[C@H](Cc1ccccc1)NC(=O)[C@@H](NC(=O)CNC(=O)[C@H](Cc1c[nH]cn1)NC(=O)[C@H](C)NC(=O)[C@@H](N)Cc1c[nH]cn1)[C@@H](C)O)[C@@H](C)O)C(=O)N[C@@H](C)C(=O)N[C@@H](C)C(=O)N[C@@H](Cc1c[nH]cn1)C(=O)N[C@@H](CC(=O)O)C(=O)N[C@@H](Cc1ccccc1)C(=O)N[C@H](C(=O)N[C@@H](CCC(=O)O)C(=O)N[C@@H](Cc1c[nH]c2ccccc12)C(=O)N[C@@H](CC(C)C)C(=O)N[C@@H](CC(C)C)C(=O)N[C@@H](CO)C(=O)N[C@@H](C)C(N)=O)C(C)C)C(=O)O` [Compound 6] (H-HAHGTFTSDYSKYLDSK([γGlu-Palmitoyl])AAHDFVEWLLSA-NH2), the “Ratio GLP-1/Glucagon” value in assay [1] is on record as 0.75.

B1: Compound 5: H-HSHGTFTSDYSKYLDS-K(Hexadecanoyl-isoGlu)-AAHDFVEWLLSA-NH2 (peptide)
peptide: H-HSHGTFTSDYSKYLDSK([γGlu-Palmitoyl])AAHDFVEWLLSA-NH2
SMILES: CCCCCCCCCCCCCCCC(=O)N[C@@H](CCC(=O)NCCCC[C@H](NC(=O)[C@H](CO)NC(=O)[C@H](CC(=O)O)NC(=O)[C@H](CC(C)C)NC(=O)[C@H](Cc1ccc(O)cc1)NC(=O)[C@H](CCCCN)NC(=O)[C@H](CO)NC(=O)[C@H](Cc1ccc(O)cc1)NC(=O)[C@H](CC(=O)O)NC(=O)[C@H](CO)NC(=O)[C@@H](NC(=O)[C@H](Cc1ccccc1)NC(=O)[C@@H](NC(=O)CNC(=O)[C@H](Cc1c[nH]cn1)NC(=O)[C@H](CO)NC(=O)[C@@H](N)Cc1c[nH]cn1)[C@@H](C)O)[C@@H](C)O)C(=O)N[C@@H](C)C(=O)N[C@@H](C)C(=O)N[C@@H](Cc1c[nH]cn1)C(=O)N[C@@H](CC(=O)O)C(=O)N[C@@H](Cc1ccccc1)C(=O)N[C@H](C(=O)N[C@@H](CCC(=O)O)C(=O)N[C@@H](Cc1c[nH]c2ccccc12)C(=O)N[C@@H](CC(C)C)C(=O)N[C@@H](CC(C)C)C(=O)N[C@@H](CO)C(=O)N[C@@H](C)C(N)=O)C(C)C)C(=O)O
As to B1, in assay [2], the “EC50 hGLP-1R CHO-K1 [nM] (cAMP, AlphaScreen)” value (shortened to “EC50 hGLP-1R CHO-K1 [nM]”) is 0.27 nM. In addition, the “EC50 hGCGR CHO-K1 [nM] (cAMP, AlphaScreen)” value (shortened to “EC50 hGCGR CHO-K1 [nM]”) in assay [3] turned out to be 0.12 nM. For the same molecule, the “EC50 [nM] (cAMP in murine insulinoma cell line)” value in assay [4] came to 0.35 nM. In addition, in assay [5], the “EC50 [nM] (inhibition of glycogen synthesis rate in primary rat hepatocytes)” value was determined as 0.75 nM.

B2: Compound 3: H-H-Ac3c-QGTFTSDYSKYLDS-K(Hexadecanoyl-isoGlu)-AAHDFVEWLLSA-NH2 (peptide)
peptide: H-H[Ac3c]QGTFTSDYSKYLDSK([γGlu-Palmitoyl])AAHDFVEWLLSA-NH2
SMILES: CCCCCCCCCCCCCCCC(=O)N[C@@H](CCC(=O)NCCCC[C@H](NC(=O)[C@H](CO)NC(=O)[C@H](CC(=O)O)NC(=O)[C@H](CC(C)C)NC(=O)[C@H](Cc1ccc(O)cc1)NC(=O)[C@H](CCCCN)NC(=O)[C@H](CO)NC(=O)[C@H](Cc1ccc(O)cc1)NC(=O)[C@H](CC(=O)O)NC(=O)[C@H](CO)NC(=O)[C@@H](NC(=O)[C@H](Cc1ccccc1)NC(=O)[C@@H](NC(=O)CNC(=O)[C@H](CCC(N)=O)NC(=O)C1(NC(=O)[C@@H](N)Cc2c[nH]cn2)CC1)[C@@H](C)O)[C@@H](C)O)C(=O)N[C@@H](C)C(=O)N[C@@H](C)C(=O)N[C@@H](Cc1c[nH]cn1)C(=O)N[C@@H](CC(=O)O)C(=O)N[C@@H](Cc1ccccc1)C(=O)N[C@H](C(=O)N[C@@H](CCC(=O)O)C(=O)N[C@@H](Cc1c[nH]c2ccccc12)C(=O)N[C@@H](CC(C)C)C(=O)N[C@@H](CC(C)C)C(=O)N[C@@H](CO)C(=O)N[C@@H](C)C(N)=O)C(C)C)C(=O)O
On to B2, for which the “EC50 hGCGR CHO-K1 [nM]” value in assay [3] was 0.62 nM. Further, the “EC50 [nM] (cAMP in murine insulinoma cell line)” value in assay [4] amounted to 0.27 nM. Moreover, in assay [5], the “EC50 [nM] (inhibition of glycogen synthesis rate in primary rat hepatocytes)” value turned out to be 3.27 nM.

B3: Compound 15: H-H-Ac4c-HGTFTSDYSKYLDE-K(Hexadecanoyl-isoGlu)-AAKDFIEWLESA-NH2 (peptide)
peptide: H-H[Ac4c]HGTFTSDYSKYLDEK([γGlu-Palmitoyl])AAKDFIEWLESA-NH2
B3: the “EC50 hGCGR CHO-K1 [nM]” value in assay [3] came out at 0.1 nM. In assay [5], the “EC50 [nM] (inhibition of glycogen synthesis rate in primary rat hepatocytes)” value turned out to be 0.05 nM.

B4: Compound 12: H-H-DAla-QGTFTSDYSKYLDE-K(Hexadecanoyl-isoGlu)-AAKDFIEWLESA-NH2 (peptide)
peptide: HXQGTFTSDYSKYLDEKAAKDFIEWLESA
modifications: position 2 is DAla (D-alanine); Lys17 side chain conjugated to hexadecanoyl-isoGlu; C-terminal amide (NH2)
For the molecule B4, the “EC50 hGLP-1R CHO-K1 [nM]” value in assay [2] was found to be 0.14 nM. Also, the “EC50 hGCGR CHO-K1 [nM]” value in assay [3] is 1.27 nM.

B5: Compound 6: H-HAHGTFTSDYSKYLDS-K(Hexadecanoyl-isoGlu)-AAHDFVEWLLSA-NH2 (peptide)
peptide: H-HAHGTFTSDYSKYLDSK([γGlu-Palmitoyl])AAHDFVEWLLSA-NH2
SMILES: CCCCCCCCCCCCCCCC(=O)N[C@@H](CCC(=O)NCCCC[C@H](NC(=O)[C@H](CO)NC(=O)[C@H](CC(=O)O)NC(=O)[C@H](CC(C)C)NC(=O)[C@H](Cc1ccc(O)cc1)NC(=O)[C@H](CCCCN)NC(=O)[C@H](CO)NC(=O)[C@H](Cc1ccc(O)cc1)NC(=O)[C@H](CC(=O)O)NC(=O)[C@H](CO)NC(=O)[C@@H](NC(=O)[C@H](Cc1ccccc1)NC(=O)[C@@H](NC(=O)CNC(=O)[C@H](Cc1c[nH]cn1)NC(=O)[C@H](C)NC(=O)[C@@H](N)Cc1c[nH]cn1)[C@@H](C)O)[C@@H](C)O)C(=O)N[C@@H](C)C(=O)N[C@@H](C)C(=O)N[C@@H](Cc1c[nH]cn1)C(=O)N[C@@H](CC(=O)O)C(=O)N[C@@H](Cc1ccccc1)C(=O)N[C@H](C(=O)N[C@@H](CCC(=O)O)C(=O)N[C@@H](Cc1c[nH]c2ccccc12)C(=O)N[C@@H](CC(C)C)C(=O)N[C@@H](CC(C)C)C(=O)N[C@@H](CO)C(=O)N[C@@H](C)C(N)=O)C(C)C)C(=O)O
Regarding B5, the “EC50 hGLP-1R CHO-K1 [nM]” value in assay [2] was 0.62 nM. For the same molecule, in assay [3], the “EC50 hGCGR CHO-K1 [nM]” value worked out at 0.83 nM. In assay [4], the “EC50 [nM] (cAMP in murine insulinoma cell line)” value turned out to be 0.4 nM. Besides, the “EC50 [nM] (inhibition of glycogen synthesis rate in primary rat hepatocytes)” value in assay [5] came to 0.87 nM.

B6: Compound 11: H-HAQGTFTSDYSKYLDE-K(Hexadecanoyl-isoGlu)-AAKDFIEWLESA-NH2 (peptide)
peptide: H-HAQGTFTSDYSKYLDEK([γGlu-Palmitoyl])AAKDFIEWLESA-NH2
For B6, the “EC50 hGLP-1R CHO-K1 [nM]” value in assay [2] was determined as 0.14 nM. The “EC50 hGCGR CHO-K1 [nM]” value in assay [3] came out at 0.69 nM.

B7: Compound 7: H-H-DAla-HGTFTSDYSKYLDS-K(Hexadecanoyl-isoGlu)-AAHDFVEWLLSA-NH2 (peptide)
peptide: H-H[dA]HGTFTSDYSKYLDSK([γGlu-Palmitoyl])AAHDFVEWLLSA-NH2
SMILES: CCCCCCCCCCCCCCCC(=O)N[C@@H](CCC(=O)NCCCC[C@H](NC(=O)[C@H](CO)NC(=O)[C@H](CC(=O)O)NC(=O)[C@H](CC(C)C)NC(=O)[C@H](Cc1ccc(O)cc1)NC(=O)[C@H](CCCCN)NC(=O)[C@H](CO)NC(=O)[C@H](Cc1ccc(O)cc1)NC(=O)[C@H](CC(=O)O)NC(=O)[C@H](CO)NC(=O)[C@@H](NC(=O)[C@H](Cc1ccccc1)NC(=O)[C@@H](NC(=O)CNC(=O)[C@H](Cc1c[nH]cn1)NC(=O)[C@@H](C)NC(=O)[C@@H](N)Cc1c[nH]cn1)[C@@H](C)O)[C@@H](C)O)C(=O)N[C@@H](C)C(=O)N[C@@H](C)C(=O)N[C@@H](Cc1c[nH]cn1)C(=O)N[C@@H](CC(=O)O)C(=O)N[C@@H](Cc1ccccc1)C(=O)N[C@H](C(=O)N[C@@H](CCC(=O)O)C(=O)N[C@@H](Cc1c[nH]c2ccccc12)C(=O)N[C@@H](CC(C)C)C(=O)N[C@@H](CC(C)C)C(=O)N[C@@H](CO)C(=O)N[C@@H](C)C(N)=O)C(C)C)C(=O)O
In the case of B7, the “EC50 hGLP-1R CHO-K1 [nM]” value in assay [2] amounted to 0.35 nM. The “EC50 hGCGR CHO-K1 [nM]” value in assay [3] worked out at 0.6 nM. Further, in assay [4], the “EC50 [nM] (cAMP in murine insulinoma cell line)” value was found to be 0.3 nM. Also, the “EC50 [nM] (inhibition of glycogen synthesis rate in primary rat hepatocytes)” value in assay [5] came out at 0.28 nM.

B8: Compound 1: H-HAQGTFTSDYSKYLDS-K(Hexadecanoyl-isoGlu)-AAHDFVEWLLSA-NH2 (peptide)
peptide: H-HAQGTFTSDYSKYLDSK([γGlu-Palmitoyl])AAHDFVEWLLSA-NH2
Consider B8, for which the “EC50 hGLP-1R CHO-K1 [nM]” value in assay [2] stood at 0.52 nM. Also, the “EC50 [nM] (cAMP in murine insulinoma cell line)” value in assay [4] was determined as 0.12 nM.
